Data reported in the supplement of paper PMC7125110.
± gives the standard error. Variants at the floor of the assay were thinned out.

B1: glmS ribozyme (parent)
chain: AUAAAAGCGCCAGAACUACAGAAAUGUAGUUGACGAGGAGGAGGUUUAUCGAAUUUUCGGCGGAUGCCUCCAAA

How the values were obtained:
Conditions in all cases: with glucosamine-6-phosphate
glucosamine-6-phosphate [1] = variants of: B1; test: self-cleavage kobs at 40 uM GlcN6P; higher = faster cleavage; RNA array
Outline: (§1)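 kobs was derived by fitting per-tile medians to one- or two-exponential decays after normalising signals to baseline and to non-cleaving reference variants. Those signals came from barcoded ribozyme variants transcribed in situ by E. coli RNA polymerase on sequenced MiSeq chips, followed through a hybridised Cy3 probe at 37 °C and imaged over ~14 h. Glucosamine-6-phosphate (40 μM to 10 mM) in HEPES/KCl/Mg(OAc)2 buffer was flowed in. Weighted Michaelis–Menten fits across concentrations then gave kcat and KM.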

glucosamine-6-phosphate [2] = variants of: B1; test: self-cleavage kobs at 160 uM GlcN6P; higher = faster cleavage; RNA array
Outline: as §1

glucosamine-6-phosphate [3] = variants of: B1; test: self-cleavage kobs at 10000 uM GlcN6P; higher = faster cleavage; RNA array
Outline: as §1

glucosamine-6-phosphate [4] = variants of: B1; test: self-cleavage kobs at 640 uM GlcN6P; higher = faster cleavage; RNA array
Outline: as §1

glucosamine-6-phosphate [5] = variants of: B1; test: self-cleavage kobs at 2500 uM GlcN6P; higher = faster cleavage; RNA array
Outline: as §1

Row | Variant | self-cleavage kobs at 40 uM GlcN6P (glucosamine-6-phosphate [1]) | self-cleavage kobs at 160 uM GlcN6P (glucosamine-6-phosphate [2]) | self-cleavage kobs at 10000 uM GlcN6P (glucosamine-6-phosphate [3]) | self-cleavage kobs at 640 uM GlcN6P (glucosamine-6-phosphate [4]) | self-cleavage kobs at 2500 uM GlcN6P (glucosamine-6-phosphate [5])
1 | AUAAAAGCGCCCGAACUACAGAAAUGUAGUUGAGGAGGAGGAGGUUUAUCGAAUUUUCGGCGGAUGCCUCCAAA | < 1e-05 s⁻¹ | < 1e-05 s⁻¹ | < 1e-05 s⁻¹ | – | –
2 | AUAAAAGCGCCCGAACUACAGAAAUGUAAUUGACCAGGAGGAGGUUUAUCGUAAUUUCGUCGGAUGGCUCCAAA | < 1e-05 s⁻¹ | – | – | – | –
3 | AUAAAAGCGCUAGAACUACAGAAAUGUAGUUGACGAGGAGGAGGUUAAUCGCAUUUUCGGCGGAUGCCUCCAAA | < 1e-05 s⁻¹ | – | – | – | –
4 | AUAAAAGCGCUAGAACUACAGAAAUGUAGUUGACGAGGACGAGGUGUAUCGAAUUUUCGGCGGAUGCCUCCAAA | < 1e-05 s⁻¹ | – | – | – | –
5 | AUAAAAGCGCUAGAACUACAGAAAUGUAGUUGACGAGGAGGAGGUUUAUCGAAUUUUCGGGGGAUGCCCCCAAA | 9.12e-05 ± 2.3e-05 s⁻¹ | – | 4.04e-05 ± 1.7e-05 s⁻¹ | – | –
6 | AUAAAAGCGCCGGAAAUACAGAAAUGUAGUUGACGGGGAGGAGGUUUAUCGAAUUUUCGGCGGAUGCCCCCAAA | < 1e-05 s⁻¹ | – | – | – | –
7 | AUAAAAGCGCCCGAACUACAGAAAUGUAGUUGACGAGGAGGAGGUUUACCGAAUUGUGGGCGGAUGCCUCCAAA | < 1e-05 s⁻¹ | – | < 1e-05 s⁻¹ | < 1e-05 s⁻¹ | –
8 | AUAAAAGCGCCGGAACUACAGAAAUGUAGUUGACGAGGAGGAGGUUUAUCGAAUUUUUGGCGGAUGCCUCCAAA | < 1e-05 s⁻¹ | – | 6.35e-05 ± 8.1e-06 s⁻¹ | – | 1.67e-05 ± 7.9e-06 s⁻¹
9 | AUAAAAGCGCCCGACCUACAGAAAUGUAGUUGACGAGGAGGUGGUUUAUCGAAUUUGCGGGGGAUGCCUCUAAA | < 1e-05 s⁻¹ | < 1e-05 s⁻¹ | – | – | < 1e-05 s⁻¹
10 | AUAAAAGCGCCGCAACUACAGAAAUGUAGUUGUCGAGGAGGAGGUUUAUCGAAUUUUCGGCGUAUGCCUCCAAA | < 1e-05 s⁻¹ | – | < 1e-05 s⁻¹ | – | –
11 | AUAAAAGCGCCGGAACUACAGAAAUGUAGUUGACGAGGAGGAGGUUUAUAGAAUUUUCGGCGGAUGCCUCCAAA | < 1e-05 s⁻¹ | – | < 1e-05 s⁻¹ | – | –
12 | AUAAAAGCGCUAGAACUACAGAAAUGUAGUUGACGAGGAGGAGGUUUAGCGAAUUUUUGCCGGAUGCCUCCAAA | < 1e-05 s⁻¹ | – | – | – | < 1e-05 s⁻¹
13 | AUAAAAGCGCUAGAACUACAGAAAUGUAGUUGACGAGGAGGAGGUUUAUCGAAUUUUCGCCGGAUGCCUCCAAA | < 1e-05 s⁻¹ | < 1e-05 s⁻¹ | < 1e-05 s⁻¹ | – | –
14 | AUAAAAGCGCCGGAACUACAGAAAUGUAGUUGGCGAUGAGGAGGUUUAUCGAAUUUUCGGCGGAUGCCUCCAAA | < 1e-05 s⁻¹ | – | < 1e-05 s⁻¹ | – | –
15 | AUAAAAGCGCCGGAACUACAGAAAUGUAGUUGACGGGCAGGAGGUUUAUCGAAUUUUCGGCGGAUGCCUCCAAA | < 1e-05 s⁻¹ | – | – | – | –
16 | AUAAAAGCGCCGGAAAUACAGAAAUGUAGGUGACGGGGAGGAGGUUUAUCGAAUUUUCGGCGGAUGCCUCCAAA | < 1e-05 s⁻¹ | – | – | – | –
17 | AUAAAAGCGCUAGAACUACAGAAAUGUAGUUGACGAGGAGGAGGGUUAUCGAAUAUUCGGCGGAUGGAUCCAAA | 6.74e-05 ± 3.3e-05 s⁻¹ | – | 5.91e-05 ± 1.9e-05 s⁻¹ | – | –
18 | AUAAAAGCGCCGGAACUACAGAAAUGUAGUUGACGAGGAGGAGGUUUAUUGAAUUUUCUACGGAUGCCUCCAAA | < 1e-05 s⁻¹ | – | < 1e-05 s⁻¹ | – | –
19 | AUAAAAGCGCUAGAACUACAGAAAUGUAGAUGACGAGGAGGAGGUUUGUCGAAUUUUCCGCGGGUGCCUCCAAA | < 1e-05 s⁻¹ | – | < 1e-05 s⁻¹ | – | < 1e-05 s⁻¹
20 | AUAAAAGCGCCGGAGCUACAGAAAUGUAGUUGACGAGGAGGAGGUUUAUCGACUUUUCGGCGGAUGGCUCCAAA | < 1e-05 s⁻¹ | – | – | – | –
